Results from US20140087995A1 (published 2014).
Numbered stars: 1 amine (or outer) side, 2 acyl side, 3 side chain; on linkers, the order of the positions; unused ones are H or OH. Bridge positions count the residues as written; N and C are the ends. * marks the point of attachment. C20 diacid = O=C(O)CCCCCCCCCCCCCCCCCCC(=O)*; γGlu = O=C(O)[C@H](CCC(=O)[*:2])N[*:1]

T1: human amylin receptor (amylin 3(a) receptor: human calcitonin receptor with RAMP-3) (human, UniProt P30988 25-474; O60896 24-148)
T1 construct: whole, on cells; also called hAmylin-R; hAmylinR
T1 sequence (looked up) 1: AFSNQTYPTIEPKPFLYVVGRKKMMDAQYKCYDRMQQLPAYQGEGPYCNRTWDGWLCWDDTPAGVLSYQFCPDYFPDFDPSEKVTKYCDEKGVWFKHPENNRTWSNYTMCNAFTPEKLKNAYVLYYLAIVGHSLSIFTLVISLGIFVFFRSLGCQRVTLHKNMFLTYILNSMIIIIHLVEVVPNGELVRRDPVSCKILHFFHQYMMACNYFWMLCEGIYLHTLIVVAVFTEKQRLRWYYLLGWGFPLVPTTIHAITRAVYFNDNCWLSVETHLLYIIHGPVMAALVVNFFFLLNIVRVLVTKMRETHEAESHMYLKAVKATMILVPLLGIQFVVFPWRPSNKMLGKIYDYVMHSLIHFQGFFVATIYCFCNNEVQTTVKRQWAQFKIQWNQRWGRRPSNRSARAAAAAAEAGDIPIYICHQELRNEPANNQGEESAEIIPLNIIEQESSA
T1 sequence (looked up) 2: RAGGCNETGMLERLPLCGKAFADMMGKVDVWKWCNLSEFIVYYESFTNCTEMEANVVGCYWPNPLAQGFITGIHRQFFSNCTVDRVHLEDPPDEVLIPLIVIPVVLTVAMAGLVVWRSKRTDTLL


target: T1, human amylin receptor (amylin 3(a) …); assay: SPA displacement of 125I-rat amylin, hAmylin 3(a) receptor membranes
Protocol: The binding assay was performed using scintillation proximity assay (SPA) beads (RPNQ0001) from PerkinElmer and cell membranes from the Amylin 3(a)/CRE-luc cells (as described in Assay (II)) were used. Membranes were prepared in the following way; the cells were rinsed with PBS and incubated with Versene for approximately 5 min before harvesting. The cells were flushed with PBS and the cell-suspension was centrifuged for 5 min at 1000 rpm. Cells were homogenized (ultrathurrax) in a buffer containing 20 mM Na-HEPES and 10 mM EDTA (pH 7.4) and centrifuged at 20.000 rpm for 15 min. The resulting pellet was resuspended, homogenized and centrifuged (20.000 rpm, 15 min) in a buffer containing 20 mM Na-HEPES and 0.1 mM EDTA (pH 7.4, buffer 2). The resulting pellet was resuspended in buffer 2 and protein concentration was measured (BCA protein Assay, Pierce). The homogenate was kept cold during the whole procedure. The membranes were kept at −80° C. until use. The assay was performed in a 384 well Optiplate (PerkinElmer) in a total volume of 40 ul. Membranes were mixed with SPA beads. Final concentration of membranes 35 ng/μL final and SPA beads was 0.05 mg/well. Test-compounds were dissolved in DMSO and further diluted in assay buffer (50 mM Hepes, pH 7.4, 1 mM CaCl2, 5 mM MgCl₂, 0.1% OA and 0.02% Tween20). […] The final mixture was incubated with shaking at 400 rpm for 120 min at 25° C. prior to centrifugation (1500 rpm, 10 min). Samples were analyzed on TopCounter™ (Packard). The IC₅₀ was calculated using (one site binding competition analysis) GraphPad Prism5 as a measure of receptor affinity.

| Binder | IC50 |
| --- | --- |
| {C20 diacid-γGlu}-KCNTATCATQRLAEFLRHSSPNFGAIPSSTPVGSNTY-NH2 (disulfide 2-7; SMILES CC[C@H](C)[C@H](NC(=O)[C@H](C)NC(=O)CNC(=O)[C@H](Cc1ccccc1)NC(=O)[C@H](CC(N)=O)NC(=O)[C@@H]1CCCN1C(=O)[C@H](CO)NC(=O)[C@H](CO)NC(=O)[C@H](Cc1c[nH]cn1)NC(=O)[C@H](CCCNC(=N)N)NC(=O)[C@H](CC(C)C)NC(=O)[C@H](Cc1ccccc1)NC(=O)[C@H](CCC(=O)O)NC(=O)[C@H](C)NC(=O)[C@H](CC(C)C)NC(=O)[C@H](CCCNC(=N)N)NC(=O)[C@H](CCC(N)=O)NC(=O)[C@@H](NC(=O)[C@H](C)NC(=O)[C@@H]1CSSC[C@H](NC(=O)[C@H](CCCCN)NC(=O)CC[C@H](NC(=O)CCCCCCCCCCCCCCCCCCC(=O)O)C(=O)O)C(=O)N[C@@H](CC(N)=O)C(=O)N[C@@H]([C@@H](C)O)C(=O)N[C@@H](C)C(=O)N[C@@H]([C@@H](C)O)C(=O)N1)[C@@H](C)O)C(=O)N1CCC[C@H]1C(=O)N[C@@H](CO)C(=O)N[C@@H](CO)C(=O)N[C@H](C(=O)N1CCC[C@H]1C(=O)N[C@H](C(=O)NCC(=O)N[C@@H](CO)C(=O)N[C@@H](CC(N)=O)C(=O)N[C@H](C(=O)N[C@@H](Cc1ccc(O)cc1)C(N)=O)[C@@H](C)O)C(C)C)[C@@H](C)O, also called 31; compound 31) | 0.204 nM |
| {C20 diacid-γGlu-γGlu}-KCNTATCATQRLAEFLRHSSPNFGAIPSSTNVGSNTP-NH2 (disulfide 2-7; SMILES CC[C@H](C)[C@H](NC(=O)[C@H](C)NC(=O)CNC(=O)[C@H](Cc1ccccc1)NC(=O)[C@H](CC(N)=O)NC(=O)[C@@H]1CCCN1C(=O)[C@H](CO)NC(=O)[C@H](CO)NC(=O)[C@H](Cc1c[nH]cn1)NC(=O)[C@H](CCCNC(=N)N)NC(=O)[C@H](CC(C)C)NC(=O)[C@H](Cc1ccccc1)NC(=O)[C@H](CCC(=O)O)NC(=O)[C@H](C)NC(=O)[C@H](CC(C)C)NC(=O)[C@H](CCCNC(=N)N)NC(=O)[C@H](CCC(N)=O)NC(=O)[C@@H](NC(=O)[C@H](C)NC(=O)[C@@H]1CSSC[C@H](NC(=O)[C@H](CCCCN)NC(=O)CC[C@H](NC(=O)CC[C@H](NC(=O)CCCCCCCCCCCCCCCCCCC(=O)O)C(=O)O)C(=O)O)C(=O)N[C@@H](CC(N)=O)C(=O)N[C@@H]([C@@H](C)O)C(=O)N[C@@H](C)C(=O)N[C@@H]([C@@H](C)O)C(=O)N1)[C@@H](C)O)C(=O)N1CCC[C@H]1C(=O)N[C@@H](CO)C(=O)N[C@@H](CO)C(=O)N[C@H](C(=O)N[C@@H](CC(N)=O)C(=O)N[C@H](C(=O)NCC(=O)N[C@@H](CO)C(=O)N[C@@H](CC(N)=O)C(=O)N[C@H](C(=O)N1CCC[C@H]1C(N)=O)[C@@H](C)O)C(C)C)[C@@H](C)O, also called 14; compound 14) | 0.196 nM |
| {C20 diacid-γGlu}-KCNTATCATQRLAHFLRHSSPNFGAIPSSTNVGSETY-NH2 (disulfide 2-7; SMILES CC[C@H](C)[C@H](NC(=O)[C@H](C)NC(=O)CNC(=O)[C@H](Cc1ccccc1)NC(=O)[C@H](CC(N)=O)NC(=O)[C@@H]1CCCN1C(=O)[C@H](CO)NC(=O)[C@H](CO)NC(=O)[C@H](Cc1c[nH]cn1)NC(=O)[C@H](CCCNC(=N)N)NC(=O)[C@H](CC(C)C)NC(=O)[C@H](Cc1ccccc1)NC(=O)[C@H](Cc1c[nH]cn1)NC(=O)[C@H](C)NC(=O)[C@H](CC(C)C)NC(=O)[C@H](CCCNC(=N)N)NC(=O)[C@H](CCC(N)=O)NC(=O)[C@@H](NC(=O)[C@H](C)NC(=O)[C@@H]1CSSC[C@H](NC(=O)[C@H](CCCCN)NC(=O)CC[C@H](NC(=O)CCCCCCCCCCCCCCCCCCC(=O)O)C(=O)O)C(=O)N[C@@H](CC(N)=O)C(=O)N[C@@H]([C@@H](C)O)C(=O)N[C@@H](C)C(=O)N[C@@H]([C@@H](C)O)C(=O)N1)[C@@H](C)O)C(=O)N1CCC[C@H]1C(=O)N[C@@H](CO)C(=O)N[C@@H](CO)C(=O)N[C@H](C(=O)N[C@@H](CC(N)=O)C(=O)N[C@H](C(=O)NCC(=O)N[C@@H](CO)C(=O)N[C@@H](CCC(=O)O)C(=O)N[C@H](C(=O)N[C@@H](Cc1ccc(O)cc1)C(N)=O)[C@@H](C)O)C(C)C)[C@@H](C)O, also called 30; compound 30) | 0.919 nM |
| {C20 diacid-γGlu}-KCNTATCATQRLAEFLRHSSPNFGAIPSSTNVGSNTP-NH2 (disulfide 2-7, also called compound 8) | 0.072 nM |
| {C20 diacid-γGlu}-KCNTATCATQRLAEFLRHSSPNFGAILPSTNVGSETY-NH2 (disulfide 2-7, also called 33; compound 33) | 0.915 nM |
| KCNTATCATQRLAEFLRHSSPNFGAIPSSTNVGSNTY (C20 diacid-gGlu on alpha amino group of N-terminal Lys 1; Cys2-Cys7 disulfide; C-terminal amide, also called compound 9) [N^α1-[(4S)-4-carboxy-4-(19-carboxynonadecanoylamino)butanoyl]-[Glu14,Arg17,Pro21,Pro27]-h-amylin] | 0.143 nM |
| {C20 diacid-γGlu}-KCNTATCATQRLAEFLRHSSPNFGAIPSSTNVGSETY-NH2 (disulfide 2-7; SMILES CC[C@H](C)[C@H](NC(=O)[C@H](C)NC(=O)CNC(=O)[C@H](Cc1ccccc1)NC(=O)[C@H](CC(N)=O)NC(=O)[C@@H]1CCCN1C(=O)[C@H](CO)NC(=O)[C@H](CO)NC(=O)[C@H](Cc1c[nH]cn1)NC(=O)[C@H](CCCNC(=N)N)NC(=O)[C@H](CC(C)C)NC(=O)[C@H](Cc1ccccc1)NC(=O)[C@H](CCC(=O)O)NC(=O)[C@H](C)NC(=O)[C@H](CC(C)C)NC(=O)[C@H](CCCNC(=N)N)NC(=O)[C@H](CCC(N)=O)NC(=O)[C@@H](NC(=O)[C@H](C)NC(=O)[C@@H]1CSSC[C@H](NC(=O)[C@H](CCCCN)NC(=O)CC[C@H](NC(=O)CCCCCCCCCCCCCCCCCCC(=O)O)C(=O)O)C(=O)N[C@@H](CC(N)=O)C(=O)N[C@@H]([C@@H](C)O)C(=O)N[C@@H](C)C(=O)N[C@@H]([C@@H](C)O)C(=O)N1)[C@@H](C)O)C(=O)N1CCC[C@H]1C(=O)N[C@@H](CO)C(=O)N[C@@H](CO)C(=O)N[C@H](C(=O)N[C@@H](CC(N)=O)C(=O)N[C@H](C(=O)NCC(=O)N[C@@H](CO)C(=O)N[C@@H](CCC(=O)O)C(=O)N[C@H](C(=O)N[C@@H](Cc1ccc(O)cc1)C(N)=O)[C@@H](C)O)C(C)C)[C@@H](C)O, also called 22; compound 22) | 0.794 nM |
